Results as given in paper PMC8154523.

What was measured:
Experiment in all cases: NMR
Conditions in all cases: 30 °C
Asp46 (position 46, […]) = test system: Asp46 (position 46, […])
Glu73 (position 73, […]) = test system: Glu73 (position 73, […])
Glu28 (position 28, […]) = test system: Glu28 (position 28, […])
Asp77 (position 77, […]) = test system: Asp77 (position 77, […])
Asp32 (position 32, […]) = test system: Asp32 (position 32, […])
Glu43 (position 43, […]) = test system: Glu43 (position 43, […])
[1] = 50 mM NaCl (plus 20 mM phosphate and 5 mM polyanionic sclx8), D-fructose-bound RSL in the presence of 5 mM sclx8 (binding has mM affinity and is pH dependent)
[2] = 50 mM NaCl (plus 20 mM phosphate), D-fructose-bound RSL, no sclx8 (0 mM)

## Ralstonia solanacearum lectin (RSL), fucose-binding lectin (Ralstonia solanacearum)
Asp46 (position 46, […]); [1]
  pKa: 4.2±0.01
Asp46 (position 46, […]); [2]
  pKa: 3.5±0.01
Glu73 (position 73, […]); [1]
  pKa: < 2.0
Glu73 (position 73, […]); [2]
  pKa: < 2.0
Glu28 (position 28, […]); [1]
  pKa: < 2.0
Glu28 (position 28, […]); [2]
  pKa: < 2.0
Asp77 (position 77, […]); [1]
  pKa: < 2.0
Asp77 (position 77, […]); [2]
  pKa: < 2.0
Asp32 (position 32, […]); [1]
  pKa: 3.7±0.01
Asp32 (position 32, […]); [2]
  pKa: 1.7±0.02
Glu43 (position 43, […]); [1]
  pKa: 6.2±0.01
Glu43 (position 43, […]); [2]
  pKa: 5.9±0.01
